Here are results for ten variants from PMC4303003.

Sequences and labels used below:
B1: wild type AcrB (Escherichia coli multidrug transporter AcrB) [E. coli] / itself (parent)
chain: MPNFFIDRPIFAWVIAIIIMLAGGLAILKLPVAQYPTIAPPAVTISASYPGADAKTVQDTVTQVIEQNMNGIDNLMYMSSNSDSTGTVQITLTFESGTDADIAQVQVQNKLQLAMPLLPQEVQQQGVSVEKSSSSFLMVVGVINTDGTMTQEDISDYVAANMKDAISRTSGVGDVQLFGSQYAMRIWMNPNELNKFQLTPVDVITAIKAQNAQVAAGQLGGTPPVKGQQLNASIIAQTRLTSTEEFGKILLKVNQDGSRVLLRDVAKIELGGENYDIIAEFNGQPASGLGIKLATGANALDTAAAIRAELAKMEPFFPSGLKIVYPYDTTPFVKISIHEVVKTLVEAIILVFLVMYLFLQNFRATLIPTIAVPVVLLGTFAVLAAFGFSINTLTMFGMVLAIGLLVDDAIVVVENVERVMAEEGLPPKEATRKSMGQIQGALVGIAMVLSAVFVPMAFFGGSTGAIYRQFSITIVSAMALSVLVALILTPALCATMLKPIAKGDHGEGKKGFFGWFNRMFEKSTHHYTDSVGGILRSTGRYLVLYLIIVVGMAYLFVRLPSSFLPDEDQGVFMTMVQLPAGATQERTQKVLNEVTHYYLTKEKNNVESVFAVNGFGFAGRGQNTGIAFVSLKDWADRPGEENKVEAITMRATRAFSQIKDAMVFAFNLPAIVELGTATGFDFELIDQAGLGHEKLTQARNQLLAEAAKHPDMLTSVRPNGLEDTPQFKIDIDQEKAQALGVSINDINTTLGAAWGGSYVNDFIDRGRVKKVYVMSEAKYRMLPDDIGDWYVRAADGQMVPFSAFSSSRWEYGSPRLERYNGLPSMEILGQAAPGKSTGEAMELMEQLASKLPTGVGYDWTGMSYQERLSGNQAPSLYAISLIVVFLCLAALYESWSIPFSVMLVVPLGVIGALLAATFRGLTNDVYFQVGLLTTIGLSAKNAILIVEFAKDLMDKEGKGLIEATLDAVRMRLRPILMTSLAFILGVMPLVISTGAGSGAQNAVGTGVMGGMVTATVLAIFFVPVFFVVVRRRFSRKNEDIEHSHTVDHH

The variants in the assay derive from B1. Nature of the assay: BN-PAGE. Conditions: with itself; read off a plot.
On to chain 1 T199M P223G, for which the screen value was 0.7.

As for chain 1 G257V P223G, the screen value turned out to be 0.15.

As to chain 1 P800S P223G, the screen value came out at 0.11.

Consider chain 1 D788K P223G, for which the screen value is 0.15.

For the variant chain 1 E810K P223G, the screen value worked out at 0.11.

On to chain 1 D256N P223G, for which the screen value amounted to 0.41.

Consider chain 1 A209V P223G, for which the screen value worked out at 0.4.

For chain 1 P223G, the screen value stood at 0.26.

For the variant chain 1 Q737L P223G, the screen value is 0.075.

chain 1 M662I P223G: the screen value came out at 0.19.
